Laboratory results: patent publication US20220298231A1 (AC IMMUNE, published 2022)
Positions count from the first letter of the chain named. One block for each binder: values may come before it. Where no end group is shown, it is not given here. The star is where a group is joined. Biotin = O=C1N[C@H]2[C@H](CS[C@H]2CCCCC(=O)*)N1; Ahx = NCCCCCC(=O)O

Columns and labels:
alpha-synuclein fibrils = alpha-synuclein fibrils (Homo sapiens (Human), UniProt P37840 1-140); assay: cell-based or functional assay
1-15aa [1] = target: T1, 1-15aa; assay: 15-mer peptide ELISA
T1 construct: also called alpha-synuclein peptide 1-15
T1 peptide: {Biotin-Ahx}-MDVFMKGLSKAKEGV
Protocol: (§1) Epitope mapping for the antibodies derived from stable hybridoma clones was determined using an indirect ELISA on a library of 15-mer peptides covering the entire sequence of human alpha-synuclein from 1 to 140aa. […] Results are expressed as optical density (O.D.). Each bar represents data for an individual antibody.
(§2) Serum-free supernatants were harvested from stable hybridomas. The supernatants containing antibodies of interest were then screened by an indirect ELISA assay to determine epitopes. Epitopes were first determined using a library of 15-mer peptides covering the entire sequence of human alpha-synuclein protein, spanning amino acids (aa) 1-140 with 9aa offset and 6aa overlap. […] Briefly, streptavidin-coated ELISA plates were blocked overnight at 4° C. […] Plates were washed with PBS/0.05% Tween® 20 and then incubated with the hybridoma supernatants at 1/100 dilution for 1 hour at 25° C. […] After final wash, plates were incubated 2 hours at 25° C. with alkaline phosphatase substrate (p-nitrophenyl phosphate disodium hexahydrate; pNPP, S0942, Sigma) and read the absorbance optical density (O.D.) signal at 405 nm using an ELISA plate reader (Tecan, Switzerland).

82-96aa [2] = target: T2, 82-96aa; assay: 15-mer peptide ELISA
T2 construct: also called alpha-synuclein peptide 82-96
T2 peptide: {Biotin-Ahx}-VEGAGSIAAATGFVK
Protocol: as §1, §2

91-105aa [3] = target: T3, 91-105aa; assay: 15-mer peptide ELISA
T3 construct: also called alpha-synuclein peptide 91-105
T3 peptide: {Biotin-Ahx}-ATGFVKKDQLGKNEE
Protocol: as §1, §2

37-51aa [4] = target: T4, 37-51aa; assay: indirect ELISA on biotinylated 15-mer peptide (streptavidin plate), supernatant 1/100
T4 construct: also called alpha-synuclein peptide 37-51
T4 peptide: {Biotin-Ahx}-VLYVGSKTKEGVVHG
Protocol: as §1, §2

82-96aa [5] = target: T2, 82-96aa; assay: 15-mer peptide ELISA
Protocol: as §1, §2

91-105aa [6] = target: T3, 91-105aa; assay: 15-mer peptide ELISA
Protocol: as §1, §2

109-123aa [7] = target: T5, 109-123aa; assay: 15-mer peptide ELISA;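 further: indirect ELISA of hybridoma supernatant antibodies (1/100, 1 h) binding immobilized 15-mer peptides spanning human alpha-synuclein 1-140 on streptavidin plates, read as optical density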
T5 peptide: {Biotin-Ahx}-QEGILEDMPVDPDNE
Protocol: as §1, §2

100-114aa [8] = target: T6, 100-114aa; assay: indirect ELISA on biotinylated 15-mer peptide (streptavidin plate), supernatant 1/100
T6 peptide: {Biotin-Ahx}-LGKNEEGAPQEGILE
Protocol: as §1, §2

37-51aa [9] = target: T4, 37-51aa; assay: 15-mer peptide ELISA
Protocol: as §1, §2

82-96aa [10] = target: T2, 82-96aa; assay: indirect ELISA on biotinylated 15-mer peptide (streptavidin plate), supernatant 1/100
Protocol: as §1, §2

1-15aa [11] = target: T1, 1-15aa; assay: as above
Protocol: as §1, §2

109-123aa [12] = target: T5, 109-123aa; assay: as above
Protocol: as §1, §2

100-114aa [13] = target: T6, 100-114aa; assay: 15-mer peptide ELISA;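 further: indirect ELISA of hybridoma supernatant antibodies (1/100, 1 h) binding immobilized 15-mer peptides spanning human alpha-synuclein 1-140 on streptavidin plates, read as optical density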
Protocol: as §1, §2

91-105aa [14] = target: T3, 91-105aa; assay: indirect ELISA on biotinylated 15-mer peptide (streptavidin plate), supernatant 1/100
Protocol: as §1, §2

B1: ACI-7067-1101C8-Ab2 (antibody, V domains shown)
VH: EVQLVESGGGLVQPKGSLKLSCAASGFSFNIYAMNWVRQAPGKGLEWVARIRSKSNNYATYYADSVKDRFTISRADSESMLYLQMNNLKTEDTAMYYCVRVGLRFYAMDYWGQGTSVTVSS
VL: DVLMTQTPLSLPVSLGDQASISCRSSQSIVHSNGNTYLEWYLQKPGQSPKLLIYKVSNRFSGVPDRFSGSGSGTDFTLKISRVEAEDLGVYYCFQGSQGPLTFGAGTKLELK
IC50, de novo alpha-synuclein aggregates formed in seeded mouse primary cortical neurons (alpha-synuclein fibrils): 114 nM
IC50, de novo alpha-synuclein aggregates formed in the seeded in vitro cellular model (alpha-synuclein fibrils): 3.3 nM

B2: ACI-7088-4303A3-Ab1 (antibody, V domains shown)
VH: QVQLQQSGAELVRPGASVTLSCKASGYTFTDYEMHWVKQTPVHGLEWIGVIDPETGGAVQNQKFKGKAILTADNSSSTAYMDLRSLTSEDSAVYNCAMGAALRLAYWGQGTLVTVSS
VL: B1 VL with T36S, S81N, Q98H, G99V, L101F, A105S, L111I
notes: mouse hybridoma mAb; also called 4303A3E4
binding result (1-15aa [1]): no binding (tested: supernatant 1/100)
binding result (82-96aa [2]): no binding (tested: supernatant 1/100)
binding result (91-105aa [3]): no binding (tested: supernatant 1/100)
binding result (37-51aa [4]): binds

B3: ACI-8033-18C11-Ab1 (antibody, V domains shown)
VH: QVQLQQPGAELVKPGASVKMSCKAAGYTFSSYWITWVRQRPGQGLDWIGDIYPGGGVTNYNEKFKTKATLTVDTSSSTAYMQLSSLTSEDSAVYYCATAQTTFAYWGQGTLVTVSA
VL: B1 VL with S28N, S32N, Q98H, G99V, L101R, A105G, L111I
notes: mouse hybridoma mAb; also called 917.18C11A11F10
binding result (82-96aa [5]): no binding (tested: supernatant 1/100)
binding result (91-105aa [6]): no binding (tested: supernatant 1/100)
binding result (109-123aa [7]): no binding (tested: supernatant 1/100)
binding result (100-114aa [8]): binds

B6: ACI-7067-1108B11-Ab2 (antibody, V domains shown)
VH: EVQLVESGGGLVQPKGSLKLSCAASGFTFNTYAMHWVRQAPGKGLEWVARIRSKGSNYATNYADSVKDRFTISRDDSQSMLYLQMNNLKTEDTAMYYCVRGHGSSYFSYWGQGTLVTVSA
VL: QIVLTQSPAIMSASPGERITMTCSANSSVTYMHWYQQKSGTSPKRWIYDTSNLASGVPARFSGSGSGTSYSLTISSMEAEDAATYYCQQWKSHPPTFGAGTKLELK
IC50, de novo alpha-synuclein aggregates formed in seeded mouse primary cortical neurons (alpha-synuclein fibrils): 143 nM
IC50, de novo alpha-synuclein aggregates formed in the seeded in vitro cellular model (alpha-synuclein fibrils): 4.5 nM

B7: ACI-7067-1113D10-Ab1 (antibody, V domains shown)
VH: EVQLVESGGGLVQPKGSLKLSCAASGFTFNTYALHWVRQAPGKGLEWVARIRSKSSNYATYYADSVKDRFTISRDDSQSMLYLQMNNLKTEDTGMYYCVRGGVSPFDYWGQGTTLTVSS
VL: QIVLTQSPAIMSASPGEKVTMTCSASSSVSYMHWYQQKSGTSPKRWIYDTSKLASGVPARFSGSGSGTSYSLTISSMEAEDSATYYCQQWSNNPPTFGGGTKLEIK
IC50, de novo alpha-synuclein aggregates formed in seeded mouse primary cortical neurons (alpha-synuclein fibrils): 702 nM
IC50, de novo alpha-synuclein aggregates formed in the seeded in vitro cellular model (alpha-synuclein fibrils): 39.6 nM

B10: ACI-7089-4418C5-Ab1 (antibody, V domains shown)
VH: DGQLQESGPGLVKPSQSLSLTCSVTGYSITSGYYWNWIRQFPGNKLEWMGYINYDGSNNYNPSLKNRISITRDTSKNQFFLKFNFVTTEDTATYYCVRGDVYWGQGTTLTVSS
VL: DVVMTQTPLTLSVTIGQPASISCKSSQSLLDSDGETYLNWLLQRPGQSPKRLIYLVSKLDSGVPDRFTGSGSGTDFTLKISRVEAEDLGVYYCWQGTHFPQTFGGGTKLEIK
notes: mouse hybridoma mAb; also called 4418C5G1
binding result (82-96aa [10]): binds

B12: ACI-8033-5A12-Ab1 (antibody, V domains shown)
VH: QVHLKQSGADLVRPGASVKLSCKASGYTFTDYYINWVKQRPGQGLEWIARIYPGSGNTYYNEKFKGRATLSAEKSSTTAYMQLSSLTSEDSAVYFCVVGYYGAWGQGTTLTVSS
VL: DVVMTQTPLSLPVSLGDQASISCRSSQSLVHSNGKTHLHWYLQKPGQSPKLLIYKVSNRFSGVPDRFSGSGSGTDFTLKISRVEAEDLGVYFCSQSTHVPWTFGGGTKLEIK
notes: mouse hybridoma mAb; also called 917.5A12A11C9
binding result (82-96aa [5]): no binding (tested: supernatant 1/100)
binding result (91-105aa [6]): no binding (tested: supernatant 1/100)
binding result (100-114aa [8]): binds
binding result (109-123aa [12]): binds

Now from value to binder:

binding result (82-96aa [5]): no binding (tested: supernatant 1/100)
binding result (91-105aa [6]): no binding (tested: supernatant 1/100)
binding result (109-123aa [7]): no binding (tested: supernatant 1/100)
binding result (100-114aa [8]): binds
B4: ACI-8033-18D12-Ab1 (antibody, V domains shown)
VH: B3 VH with A25S, S30T, Q82H, Y95F, Y105H
VL: B1 VL with S28N, V30A, S32N, Q98H, G99V, L101R, A105G, L111I
notes: mouse hybridoma mAb; also called 917.18D12F10D6

binding result (1-15aa [1]): no binding (tested: supernatant 1/100)
binding result (37-51aa [9]): no binding (tested: supernatant 1/100)
binding result (91-105aa [3]): no binding (tested: supernatant 1/100)
binding result (82-96aa [10]): binds
B5: ACI-7089-4418F6-Ab1 (antibody, V domains shown)
VH: QVQLQQSGAELARPGASVKVSCKASGYTFTSSGISWLKHRTGQGLEWIGDIYPRSGNTYYNEKFKDKATLTADKSSSTAYMELRSLTSEDSAVYFCSSGNYWGQGTTLTVSS
VL: DIVITQDDLSNPVTSGESVSISCRSSKSLLYKDGKTYLNWFLQRPGQSPQLLIYLMSTRASGVSDRFSGSGSGTDFTLEISRVKAEDVGVYYCQQLLEYPLTFGAGTKLELK
notes: mouse hybridoma mAb; also called 4418F6G7

binding result (37-51aa [9]): no binding (tested: supernatant 1/100)
binding result (82-96aa [2]): no binding (tested: supernatant 1/100)
binding result (1-15aa [11]): binds
B8: ACI-7088-4303A1-Ab1 (antibody, V domains shown)
VH: EVQLQQSGAELVRPGASVKLSCTASGFNIKDDYMHWVKQRPEQGLEWIGWIDPENGDSEYASKFQGKATMTADTSSNTAYLQLSSLTSEDTAVYYCKTWGTAQALFPYWGQGTLVTVSA
VL: DIVMTQSQKFMSTSVGDRVSITCKASQNVGTSVGWYQQKAGQSPKLLIHSASNRYTGVPDRFTGSGSGTDFTLTINNMQSEDLADYFCQQYRSYPLTFGAGTKLELK
notes: mouse hybridoma mAb; also called 4303A1E7

binding result (37-51aa [9]): no binding (tested: supernatant 1/100)
binding result (82-96aa [2]): no binding (tested: supernatant 1/100)
binding result (91-105aa [3]): no binding (tested: supernatant 1/100)
binding result (1-15aa [11]): binds
B9: ACI-7088-4317A4-Ab1 (antibody, V domains shown)
VH: B8 VH with S58T, A102T
VL: B8 VL with S12Y, T31N, S32A, S65T
notes: mouse hybridoma mAb; also called 4317A4D2

binding result (1-15aa [1]): no binding (tested: supernatant 1/100)
binding result (37-51aa [9]): no binding (tested: supernatant 1/100)
binding result (82-96aa [10]): binds
B11: ACI-7089-4409F1-Ab1 (antibody, V domains shown)
VH: DVQLQESGPGLVKPSQSLSLTCSVTGYSITRGYYWNWIRQFPGNKLEWMGYISYDGSNNYNPSLRNRISITRDTSKNQFFLKLKSVTTEDTATYFCARGDSNWGQGTTLTVSA
VL: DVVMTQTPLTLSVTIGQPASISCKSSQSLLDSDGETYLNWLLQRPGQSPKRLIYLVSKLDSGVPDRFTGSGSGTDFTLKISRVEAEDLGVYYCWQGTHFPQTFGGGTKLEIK
notes: mouse hybridoma mAb; also called 4409F1A8

binding result (82-96aa [5]): no binding (tested: supernatant 1/100)
binding result (91-105aa [6]): no binding (tested: supernatant 1/100)
binding result (100-114aa [13]): no binding (tested: supernatant 1/100)
binding result (109-123aa [12]): binds
B13: ACI-8033-19A2-Ab1 (antibody, V domains shown)
VH: EVQLVESGGGLVQPKGSLKLSCAASGFSFNTYAMNWVRQAPGKGLEWVARIRSKSNNYATYYVDSVKDRFTISRDDSESMLYLQMNNLKTEDTALYYCVSESAYWGQGTLVTVSA
VL: B12 VL with K35N, H37Y, H39Y, F60L, W101F, G105S
notes: mouse hybridoma mAb; also called 917.19A2E9E5

binding result (82-96aa [5]): no binding (tested: supernatant 1/100)
binding result (91-105aa [6]): no binding (tested: supernatant 1/100)
binding result (109-123aa [12]): binds
B14: ACI-8033-1G10-Ab1 (antibody, V domains shown)
VH: DVQLQESGPGLVKPSQTVFLTCTVTGISITTGNYRWSWIRQFPGNKLEWIGYIYYSGTITYNPSLTSRTTITRDTPKNQFFLEMNSLTAEDTATYYCARIYYGNAMDYWGQGTSVTVSS
VL: B12 VL with K35N, H37Y, W101H
notes: mouse hybridoma mAb; also called 917.1G10A10F6

binding result (82-96aa [5]): no binding (tested: supernatant 1/100)
binding result (91-105aa [6]): no binding (tested: supernatant 1/100)
binding result (100-114aa [13]): no binding (tested: supernatant 1/100)
binding result (109-123aa [12]): binds
B15: ACI-8033-1A12-Ab1 (antibody, V domains shown)
VH: B12 VH with T28S, Y32F, R40T, S55N, G56N, Y59F, R67K
VL: B12 VL with K35N, V90F
notes: mouse hybridoma mAb; also called 917.1A12C1B4

binding result (1-15aa [1]): no binding (tested: supernatant 1/100)
binding result (37-51aa [9]): no binding (tested: supernatant 1/100)
binding result (82-96aa [2]): no binding (tested: supernatant 1/100)
binding result (91-105aa [14]): binds
B16: ACI-7088-4301H3-Ab2 (antibody, V domains shown)
VH: EVQLQQSGPELVKPGASVKISCKASGYTFADYFMNWVKQSHGKSLEWIGDINPNNGGTTYNQKFKGKATLTVDKSSNTAYMELRSLTSEDSAVYYCARGRNYAMDYWGQGTSVTVSS
VL: DIVMSQSPSSLAVSAGEKVTMSCKSSQSLLNSRTRKNYLAWYQQKPGQSPKLLIYSASTRESGVPDRFTGSGFGTDFTLTISSVQAEDLAVYYCKQSYDLWTFGGGTKLEIK
notes: mouse hybridoma mAb; also called 4301H3A5
